# Source: publication PMC3201874
# Target: huPrP(23-110) (human) (UniProt P04156)
# Conditions: FRET: 25 mM Tris-HCl pH 7.5, 30 mM NaCl, 0.2 mM MgCl2, 20 C
# Chain of huPrP(23-110) (human) (P04156 23-110): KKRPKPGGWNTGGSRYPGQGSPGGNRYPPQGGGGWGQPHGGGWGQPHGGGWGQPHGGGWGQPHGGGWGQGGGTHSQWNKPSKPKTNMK
substance,measurement,value
cTAR,Ka,> 1e+07 M⁻¹
